Results as given in publication PMC7072298.

Assays:
[1] = target: HSP90αM domain (solid phase assays of Figure 2B and 2C); assay: ELISA; solid phase protein–protein interaction assay, dose-dependent; HSP90M domain (100 µg/mL) coated on plate, FN 30, 45, 70 and 120 kDa fragments at varying concentrations in solution
Tau (Homo sapiens) = Tau (Homo sapiens) (UniProt P10636); details: cited from earlier work
[2] = target: glucocorticoid receptor LBD (Homo sapiens) (UniProt P04150); details: cited from earlier work
Chain of glucocorticoid receptor LBD (Homo sapiens) (P04150 523-777): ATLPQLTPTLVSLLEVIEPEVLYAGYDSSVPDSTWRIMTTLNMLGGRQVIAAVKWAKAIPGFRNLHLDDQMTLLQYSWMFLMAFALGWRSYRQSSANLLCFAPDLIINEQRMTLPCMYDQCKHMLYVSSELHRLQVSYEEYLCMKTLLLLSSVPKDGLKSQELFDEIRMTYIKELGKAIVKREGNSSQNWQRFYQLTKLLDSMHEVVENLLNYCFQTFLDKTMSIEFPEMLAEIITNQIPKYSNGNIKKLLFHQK

Chain of Tau (Homo sapiens) (P10636 2-758): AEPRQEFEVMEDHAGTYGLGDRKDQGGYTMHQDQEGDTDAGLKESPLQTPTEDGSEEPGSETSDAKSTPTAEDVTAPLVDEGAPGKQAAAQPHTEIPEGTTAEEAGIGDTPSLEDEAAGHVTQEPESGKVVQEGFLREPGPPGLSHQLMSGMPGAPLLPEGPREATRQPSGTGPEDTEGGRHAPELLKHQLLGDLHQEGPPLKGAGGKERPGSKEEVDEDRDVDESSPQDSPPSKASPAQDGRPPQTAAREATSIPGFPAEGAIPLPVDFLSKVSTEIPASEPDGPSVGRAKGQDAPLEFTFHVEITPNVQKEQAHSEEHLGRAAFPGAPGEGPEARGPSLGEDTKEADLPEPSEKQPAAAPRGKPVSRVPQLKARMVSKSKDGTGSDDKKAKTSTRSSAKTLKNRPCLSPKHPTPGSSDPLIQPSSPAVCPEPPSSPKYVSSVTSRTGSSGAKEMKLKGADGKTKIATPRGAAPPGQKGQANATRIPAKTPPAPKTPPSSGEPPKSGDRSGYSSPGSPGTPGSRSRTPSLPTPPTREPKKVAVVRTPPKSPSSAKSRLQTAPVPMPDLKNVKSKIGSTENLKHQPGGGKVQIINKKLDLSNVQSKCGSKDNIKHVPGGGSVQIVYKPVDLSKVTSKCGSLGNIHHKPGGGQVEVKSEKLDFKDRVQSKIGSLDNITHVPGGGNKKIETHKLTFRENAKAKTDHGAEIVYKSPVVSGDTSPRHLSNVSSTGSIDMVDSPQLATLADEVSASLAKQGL

70-kDa N-terminal FN fragment (FN70) (domain or fragment)
Kd [1]: 0.5 µM

N-terminal FN 30-kDa heparin-binding fragment (FN30) (domain or fragment)
Kd [1]: 0.07 µM

45-kDa gelatin-binding FN fragment (FN45) (domain or fragment)
Kd of FN45 relative to that of FN30 (fold higher) [1]: 3 fold

HSP90 (from UniProt P07900)
Kd (Tau (Homo sapiens)): 4.8 µM

HSP90 (from UniProt P02829)
Kd [2]: 0.8 µM
